# Experimental data published in patent publication US20250011363A1, “OPTIMIZED SHORTENED PEPTIDE THAT BINDS TO ACETYLCHOLINE RECEPTOR, AND USE THEREOF” (SKINMED CO., LTD., priority 2021, published 2025).
# Target: acetylcholine receptor (Homo sapiens, UniProt P02708)
# Experiment: SPR binding affinity (RU) of optimized 5mer/6mer/7mer peptides, Examples 6-7
# Details: 6mer-1 Top sequence; SPR; peptides tested at 10 μM
# How it was run: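 Synthetic 5mer and 6mer peptides, built from frequent or infrequent amino-acid combinations, were tested at 10 μM for binding to the human acetylcholine receptor by surface plasmon resonance. Binding is reported in response units (RU).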
# Sequence of acetylcholine receptor (P02708 21-457): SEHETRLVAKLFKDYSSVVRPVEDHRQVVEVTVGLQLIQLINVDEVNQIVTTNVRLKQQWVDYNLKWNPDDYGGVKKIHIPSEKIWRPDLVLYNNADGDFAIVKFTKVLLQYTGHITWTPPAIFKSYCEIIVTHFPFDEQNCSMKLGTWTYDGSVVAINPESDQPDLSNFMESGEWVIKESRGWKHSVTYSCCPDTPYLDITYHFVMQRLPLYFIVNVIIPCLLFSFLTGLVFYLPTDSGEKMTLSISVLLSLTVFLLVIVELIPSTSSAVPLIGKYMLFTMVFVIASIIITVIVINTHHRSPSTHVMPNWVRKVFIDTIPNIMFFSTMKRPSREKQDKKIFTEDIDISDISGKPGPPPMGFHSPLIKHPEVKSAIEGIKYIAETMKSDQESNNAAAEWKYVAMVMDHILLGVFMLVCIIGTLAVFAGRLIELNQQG
row,Substance,Binding affinity
1,6mer-1-327 (KRGITR),139 Ru
2,6mer-1-364 (RKRQSK),124 Ru
3,6mer-1-378 (KRSLQK),153 Ru
4,6mer-1-400 (KRWQTK),123 Ru
5,6mer-1-315 (RKQQTK),128 Ru
6,6mer-1-380 (KRLQLR),121 Ru

# Same assay, conditions: 6mer-2 Top sequence; SPR; peptides tested at 10 μM
row,Substance,Binding affinity
1,6mer-2-106 (RWVQRK),123 Ru
2,6mer-2-78 (KRYLKR),135 Ru
3,6mer-2-27 (KVIRRK),128 Ru
4,6mer-2-63 (KSFRKR),121 Ru

# Same assay, conditions: SPR, Resonance Units; 5mer Bottom sequence (bottom combinations); peptides tested at 10 μM
row,Substance,Binding affinity
1,5mer-809 (RKSGK),15 Ru
2,5mer-928 (KHMVR),27 Ru
3,5mer-935 (RETFK),32 Ru
4,5mer-810 (KFHKK),11 Ru
5,5mer-731 (KADHK),18 Ru
6,5mer-724 (KTTAK),14 Ru
7,5mer-642 (RAWDR),22 Ru
8,5mer-629 (RPTNK),32 Ru
9,5mer-1024 (KIDNK),26 Ru
10,5mer-1065 (KNPIR),18 Ru
11,5mer-983 (RTTGR),23 Ru
12,5mer-656 (KATGR),13 Ru
13,5mer-639 (KETWK),13 Ru
14,5mer-711 (KECIK),32 Ru
15,5mer-923 (KCWMK),19 Ru
16,5mer-695 (KKPDR),26 Ru
17,5mer-653 (KTTWK),16 Ru
18,5mer-771 (RKWVK),24 Ru
19,5mer-1044 (RDCFK),22 Ru
20,5mer-937 (KASNR),21 Ru
21,5mer-997 (RYPHR),30 Ru
22,5mer-641 (RITWK),22 Ru
23,5mer-1096 (RPTDK),15 Ru
24,5mer-1107 (RPWHK),21 Ru
25,5mer-981 (KNDKK),33 Ru
26,5mer-1052 (RNDWR),17 Ru

# Same assay, conditions: SPR, Resonance Units; peptides tested at 10 μM; 6mer-1 Bottom sequence
row,Substance,Binding affinity
1,6mer-1-1059 (RRETVK),39 Ru
2,6mer-1-1006 (KKDKIK),25 Ru
3,6mer-1-1048 (RRCMMK),36 Ru
4,6mer-1-1094 (RRMAIK),42 Ru
5,6mer-1-1156 (KRYTVR),37 Ru
6,6mer-1-1042 (KKITAR),40 Ru
7,6mer-1-1055 (KRCNDK),40 Ru
8,6mer-1-1158 (RKPMMK),33 Ru
9,6mer-1-1160 (RRDWAK),29 Ru
10,6mer-1-1183 (RKIHNK),35 Ru
11,6mer-1-1037 (RRKNNR),36 Ru

# Same assay, conditions: SPR, Resonance Units; peptides tested at 10 μM; 6mer-1 Bottom sequence (Table 11)
row,Substance,Binding affinity
1,6mer-1-751 (RRTNFK),27 Ru
2,6mer-1-622 (KKCPNR),18 Ru
3,6mer-1-612 (KRIMER),17 Ru
4,6mer-1-605 (RKNADR),20 Ru
5,6mer-1-762 (KKTKAR),13 Ru

# Same assay, conditions: SPR, Resonance Units; peptides tested at 10 μM; 6mer-2 Bottom sequence
row,Substance,Binding affinity
1,6mer-2-740 (KIDIRR),12 Ru
2,6mer-2-819 (KFSVRR),23 Ru
3,6mer-2-761 (RTEPRK),29 Ru
4,6mer-2-779 (KAAHRR),13 Ru
5,6mer-2-774 (KFDARK),17 Ru
6,6mer-2-747 (RANFRR),29 Ru
7,6mer-2-744 (KDHPRK),19 Ru
8,6mer-2-815 (KICGRK),30 Ru
9,6mer-2-651 (KNADRR),21 Ru
10,6mer-2-809 (REPWRR),18 Ru
11,6mer-2-625 (RFPDKK),33 Ru
12,6mer-2-977 (REMKRK),30 Ru
13,6mer-2-674 (KKWERK),26 Ru
14,6mer-2-767 (RICGRK),13 Ru
15,6mer-2-811 (KAMKRK),16 Ru
16,6mer-2-659 (KIPNKR),22 Ru
17,6mer-2-824 (RITNKR),26 Ru
18,6mer-2-808 (RKKFKK),21 Ru
19,6mer-2-748 (RFDKKR),28 Ru
20,6mer-2-969 (KATHKR),33 Ru
21,6mer-2-754 (KADGRR),12 Ru

# Same assay, conditions: SPR, Resonance Units; peptides tested at 10 μM; 6mer-2 Top sequence
row,Substance,Binding affinity
1,6mer-2-459 (KLFSRK),139 Ru
2,6mer-2-548 (RLQCRR),142 Ru
3,6mer-2-549 (KQLCKK),142 Ru
4,6mer-2-448 (RSFRRR),128 Ru
5,6mer-2-551 (KWYTKR),141 Ru
6,6mer-2-428 (KVFLKK),142 Ru
7,6mer-2-461 (KSVCRR),149 Ru

# Same assay, conditions: SPR, Resonance Units; peptides tested at 10 μM; 6mer-2 Top sequence (Table 12)
row,Substance,Binding affinity
1,6mer-2-366 (KQYYRR),142 Ru
2,6mer-2-402 (KRYSRR),145 Ru
3,6mer-2-265 (RRQTRK),135 Ru
4,6mer-2-352 (RWFYRR),137 Ru
5,6mer-2-205 (KSFQRK),147 Ru
6,6mer-2-355 (RGIRKK),124 Ru
7,6mer-2-260 (RRFCKR),142 Ru

# Same assay, conditions: SPR, peptides at 10 μM; 6mer-2 Bottom sequence
row,Substance,Binding affinity
1,6mer-2-995 (KFWEKK),38 Ru
2,6mer-2-1005 (RFKARR),23 Ru
3,6mer-2-1048 (RIHNRK),22 Ru
4,6mer-2-1023 (KAEFKR),26 Ru

# Same assay, conditions: SPR, peptides tested at 10 μM; 5mer Top sequence
row,Substance,Binding affinity
1,5mer-58 (KWVSK),75 Ru
2,5mer-453 (KGVCR),68 Ru
3,5mer-446 (RGLQK),53 Ru
4,5mer-474 (RQFLR),80 Ru
5,5mer-454 (RQVLR),77 Ru
6,5mer-107 (RWVSR),56 Ru
7,5mer-358 (KVRSK),50 Ru
8,5mer-156 (KGLRK),85 Ru
9,5mer-495 (KVVTK),52 Ru
10,5mer-369 (RGFTR),84 Ru
11,5mer-430 (KWRTK),80 Ru
12,5mer-154 (RSITR),54 Ru
13,5mer-444 (KQQYR),65 Ru
14,5mer-211 (RLYYR),73 Ru
15,5mer-167 (KQFRK),64 Ru
16,5mer-7 (RQLTK),54 Ru

# Same assay, conditions: SPR, peptides tested at 10 μM; 5mer Top sequence (top combinations)
row,Substance,Binding affinity
1,5mer-212 (KQQYK),64 Ru
2,5mer-523 (KQFQK),84 Ru
3,5mer-583 (KVVYR),75 Ru
4,5mer-569 (RQQRK),79 Ru
5,5mer-241 (KVRCR),51 Ru

# Same assay, conditions: SPR, peptides tested at 10 μM; 6mer-1 Bottom sequence (Table 11)
row,Substance,Binding affinity
1,6mer-1-864 (RRTWGR),32 Ru
2,6mer-1-872 (KRPCHR),23 Ru
3,6mer-1-917 (KRADDK),27 Ru
4,6mer-1-931 (KKNWPR),35 Ru
5,6mer-1-814 (KKCNAK),15 Ru
6,6mer-1-802 (RKYHGR),32 Ru
7,6mer-1-858 (KKKHKR),27 Ru

# Same assay, conditions: SPR, peptides tested at 10 μM; 6mer-1 Top sequence
row,Substance,Binding affinity
1,6mer-1-505 (RRRFTR),148 Ru
2,6mer-1-569 (RRVITK),148 Ru
3,6mer-1-545 (RRSYRK),127 Ru
4,6mer-1-552 (RKRYRK),144 Ru
5,6mer-1-456 (RRGQYR),153 Ru
6,6mer-1-557 (KRQVQK),128 Ru
7,6mer-1-494 (KKLFSR),128 Ru
8,6mer-1-514 (KKGRSK),128 Ru
9,6mer-1-474 (KRLFSK),121 Ru
10,6mer-1-541 (RKWFTR),136 Ru

# Same assay, conditions: SPR, peptides tested at 10 μM; 6mer-1 Top sequence (top combinations)
row,Substance,Binding affinity
1,6mer-1-68 (RKLQLK),153 Ru
2,6mer-1-55 (KRSIYR),133 Ru
3,6mer-1-40 (KRSQYK),121 Ru
4,6mer-1-16 (KKQYCR),136 Ru
5,6mer-1-101 (KRWLYR),142 Ru
6,6mer-1-172 (RRLIRK),153 Ru
7,6mer-1-115 (RRSLSR),133 Ru
8,6mer-1-66 (KKSISR),147 Ru
9,6mer-1-201 (RRRIQR),151 Ru
10,6mer-1-198 (KRLFCR),148 Ru
11,6mer-1-72 (RKVQLK),139 Ru
12,6mer-1-113 (KRGVQK),148 Ru
13,6mer-1-89 (RKQRCK),142 Ru

# Same assay, conditions: SPR; XRRQRR-6mer and RRQRRX-6mer
row,Substance,"Binding affinity, relative value to the RRQRR sequence"
1,3635 (RRQRRQ) [compound 3635],101
2,3626 (RRQRRL) [compound 3626],141
3,3621 (RRQRRG) [compound 3621],109

# Same assay, conditions: SPR; peptides tested at 10 μM; 5mer Bottom sequence
row,Substance,Binding affinity
1,5mer-837 (RPMDR),28 Ru
2,5mer-1146 (KPHGR),23 Ru
3,5mer-1179 (RMNVR),18 Ru
4,5mer-848 (RYMVK),12 Ru
5,5mer-1136 (KNSAR),25 Ru
6,5mer-870 (RCKVK),25 Ru
7,5mer-1112 (RTTFK),29 Ru
